The values below come from patent US20160355553A1 (Janssen / Centocor, published 2016).

The target of test [1] is H3 Mini-HA cluster 1+2+3+4+5+6+7-N405E (influenza A virus H3N2, UniProt O11283 17-566). As to the kind of experiment: FACS, HEK293F cells.
The target of test [2] is H3 Mini-HA cluster 1+2+3+4+5+6+7-N405A (influenza A virus H3N2, UniProt O11283 17-566). As to the kind of experiment: FACS, HEK293F cells. In general terms: Flow cytometry measures light scatter and fluorescence of single cells or particles in a stream.
For test [3], the target named is H3 Mini-HA cluster 1+2+3+4+5+6+7-N405D (influenza A virus H3N2, UniProt O11283 17-566). As to the kind of experiment: FACS, HEK293F cells.
Test [4] addresses H3 Mini-HA cluster 1+5 N405A (influenza A virus H3N2, UniProt O11283 17-566). Briefly: FACS on HEK293F [D00010 FIG. 8B].
The target in test [5] is H3 Mini-HA cluster 1+5 N405D (influenza A virus H3N2, UniProt O11283 17-566). Briefly: FACS on HEK293F [D00010 FIG. 8B].
Test [6] addresses H3 Mini-HA cluster 1+5 N405E (influenza A virus H3N2, UniProt O11283 17-566). As to the kind of experiment: FACS on HEK293F [D00010 FIG. 8B].
In test [7] the target is full-length HA of H1 A/Brisbane/59/2007 with cleavage site mutation R343Q (influenza A virus H1N1, UniProt B4URD6 18-565). As to the kind of experiment: FACS, HEK293F cells.
Test [8] deals with miniHA cluster1+4 (A/Brisbane/59/2007) (influenza A virus H1N1, UniProt A8C8J4 18-565). Briefly: FACS on HEK293F.

B1: CR9114 (antibody, V domains shown)
VH: QVQLVQSGAEVKKPGSSVKVSCKSSGGTSNNYAISWVRQAPGQGLDWMGGISPIFGSTAYAQKFQGRVTISADIFSNTAYMELNSLTSEDTAVYFCARHGNYYYYSGMDVWGQGTTVTVSS
VL: SYVLTQPPAVSGTPGQRVTISCSGSDSNIGRRSVNWYQQFPGTAPKLLIYSNDQRPSVVPDRFSGSKSGTSASLAISGLQSEDEAEYYCAAWDDSLKGAVFGGGTQLTVL
For B1, the binding result is recorded as “no binding (tested: 5 microgram/ml)” in test [1]; “no binding (tested: 5 microgram/ml)” in test [2]; “no binding (tested: 5 microgram/ml)” in test [3]; “no binding (tested: 5 ug/ml)” in test [4]; “no binding (tested: 5 ug/ml)” in test [5]; “no binding (tested: 5 ug/ml)” in test [6].

B2: CR6261 (antibody, V domains shown)
VH: EVQLVESGAEVKKPGSSVKVSCKASGGPFRSYAISWVRQAPGQGPEWMGGIIPIFGTTKYAPKFQGRVTITADDFAGTVYMELSSLRSEDTAMYYCAKHMGYQVRETMDVWGKGTTVTVSS
VL: QSVLTQPPSVSAAPGQKVTISCSGSSSNIGNDYVSWYQQLPGTAPKLLIYDNNKRPSGIPDRFSGSKSGTSATLGITGLQTGDEANYYCATWDRRPTAYVVFGGGTKLTVLG
For the molecule B2, the binding result in test [4], in test [5] and in test [6] was “no binding (tested: 5 ug/ml)” in each case.

B3: CR8057 (antibody, V domains shown)
VH: EVQLVESGGGLVQPGGSLRLSCAASGFTDSVIFMSWVRQAPGKGLECVSIIYIDDSTYYADSVKGRFTISRHNSMGTVFLEMNSLRPDDTAVYYCATESGDFGDQTGPYHYYAMDV
VL: QSALTQPASVSGSPGQSITISCTGSSGDIGGYNAVSWYQHHPGKAPKLMIYEVTSRPSGVSDRFSASRSGDTASLTVSGLQAEDEAHYYCCSFADSNILI
On to B3, for which the binding result is given as “no binding (tested: 5 microgram/ml)” in test [7]; “no binding (tested: 5 ug/ml)” in test [8]; “no binding (tested: 5 ug/ml)” in test [4]; “no binding (tested: 5 ug/ml)” in test [5]; “no binding (tested: 5 ug/ml)” in test [6].
